The results in this text go back to article PMC2756145.

What all share (test): filter binding
One series addresses T1, Pot1-DBD_S123A (Schizosaccharomyces pombe, UniProt O13988 1-389, S123A).
T1 sequence: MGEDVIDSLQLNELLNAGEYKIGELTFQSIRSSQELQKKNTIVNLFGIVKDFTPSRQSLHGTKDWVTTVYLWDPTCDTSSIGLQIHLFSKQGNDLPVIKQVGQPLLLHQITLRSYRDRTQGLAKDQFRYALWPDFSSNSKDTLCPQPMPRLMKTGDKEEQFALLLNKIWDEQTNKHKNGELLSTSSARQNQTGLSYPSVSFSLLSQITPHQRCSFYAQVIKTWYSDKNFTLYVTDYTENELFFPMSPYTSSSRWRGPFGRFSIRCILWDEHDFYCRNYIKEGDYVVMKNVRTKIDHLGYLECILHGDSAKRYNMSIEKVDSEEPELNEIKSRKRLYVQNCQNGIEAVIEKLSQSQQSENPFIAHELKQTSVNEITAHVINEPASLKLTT

The target of a further series is T2, Pot1-DBD_Q91A (Schizosaccharomyces pombe, UniProt O13988 1-389, Q91A).
T2 sequence: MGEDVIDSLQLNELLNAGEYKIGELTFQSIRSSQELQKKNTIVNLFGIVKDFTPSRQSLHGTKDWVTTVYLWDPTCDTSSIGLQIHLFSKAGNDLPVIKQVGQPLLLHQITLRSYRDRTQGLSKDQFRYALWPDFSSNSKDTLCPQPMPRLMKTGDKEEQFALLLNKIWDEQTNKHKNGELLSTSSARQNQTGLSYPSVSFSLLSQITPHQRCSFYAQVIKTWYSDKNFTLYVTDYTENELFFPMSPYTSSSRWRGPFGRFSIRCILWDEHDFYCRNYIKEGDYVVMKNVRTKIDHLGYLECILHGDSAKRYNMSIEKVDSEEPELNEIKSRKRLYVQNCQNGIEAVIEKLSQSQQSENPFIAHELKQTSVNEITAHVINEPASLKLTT

The target of a further series is T3, Pot1-DBD (Schizosaccharomyces pombe, UniProt O13988 1-389).
T3 sequence: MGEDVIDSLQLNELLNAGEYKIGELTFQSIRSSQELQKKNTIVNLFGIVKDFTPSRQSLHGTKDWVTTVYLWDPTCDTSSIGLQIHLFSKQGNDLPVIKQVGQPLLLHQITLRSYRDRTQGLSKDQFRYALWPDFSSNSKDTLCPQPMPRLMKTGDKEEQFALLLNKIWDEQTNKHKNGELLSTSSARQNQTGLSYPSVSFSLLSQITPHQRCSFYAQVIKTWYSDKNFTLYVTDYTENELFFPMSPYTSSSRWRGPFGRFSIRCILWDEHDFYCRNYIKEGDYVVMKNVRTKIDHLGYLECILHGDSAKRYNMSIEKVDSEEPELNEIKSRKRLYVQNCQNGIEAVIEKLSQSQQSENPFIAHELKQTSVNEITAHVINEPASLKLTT

Turning to GGTTACGGTTAC (ssDNA) [12mer], the equilibrium dissociation constant (Kd) stood at 30 ± 2 nM with Pot1-DBD_S123A, 7 ± 0.6 nM in the series with Pot1-DBD_Q91A and 1 ± 0.1 nM in the series with Pot1-DBD.

What is called Kd is the concentration at which binding is half-saturated. Read a low Kd as a tighter complex.
